Data on one substance can be found in patent publication US20210261965A1.

pKd: −log10 of the molar value.

This test deals with Phosphatidylserine decarboxylase (PSD/PISD), purified. Description: microscale thermophoresis (MST), fluorescently labeled purified SMAC, Monolith-NT115.
Chain of Phosphatidylserine decarboxylase (PSD/PISD), purified (B1AKM7 whole entry): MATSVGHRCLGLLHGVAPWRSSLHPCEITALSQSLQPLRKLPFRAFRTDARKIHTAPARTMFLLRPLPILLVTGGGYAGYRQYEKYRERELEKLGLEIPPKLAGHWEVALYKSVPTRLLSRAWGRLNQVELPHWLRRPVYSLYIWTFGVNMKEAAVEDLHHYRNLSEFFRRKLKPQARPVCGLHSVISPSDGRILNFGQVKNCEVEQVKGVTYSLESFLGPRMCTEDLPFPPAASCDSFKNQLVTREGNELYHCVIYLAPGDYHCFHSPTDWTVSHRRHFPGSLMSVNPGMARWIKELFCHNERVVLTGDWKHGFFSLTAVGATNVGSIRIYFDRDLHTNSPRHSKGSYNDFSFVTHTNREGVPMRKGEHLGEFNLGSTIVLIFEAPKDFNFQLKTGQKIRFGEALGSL

As to “purified SMAC/Diablo (second mitochondria-derived activator of caspase/direct inhibitor of apoptosis-binding protein with low pI) (from UniProt Q9NR28 56-239)”, the pKd is 7.00.
